Results on three molecules are retold here after US20140155331A1 (published 2014).

B1: S100B (other)
chain: MSELEKAMVALIDVFHQYSGREGDKHKLKKSELKELINNELSHFLEEIKEQEVVDKVMETLDNDGDGECDFQEFMAFVAMVTTACHEFFEHE

Where no end group is shown, it is not given here. [ ]: non-standard residue; d: D form. Aib = CC(C)(N)C(=O)O

Assay [1] has as its target pBDC-53. Nature of the assay: fluorescence anisotropy.
In assay [2] the target is B1. Nature of the assay: fluorescence anisotropy.

In the case of B1, in assay [1], the Kd worked out at 267 nM.

B2: pBDC-TRTK (pBM-TRTK dimerised with a properly designed crosslinker) (peptide)
peptide: fluorescein-TRTKIDW[Aib]KIL[Aib]GGGCG
modifications: not fully specified (residue 16); also: homodimer: two copies joined at Cys16 through BMH, linker at 16 via BMH, other end not in the chain
In turn, B2 registered a Kd in assay [2] of 32 nM.

B3: pBM-53 (Aib substituted p53 monomer peptide) (peptide)
peptide: fluorescein-QST[Aib]RH[Aib]KLMFKT[Aib]G
In turn, B3 came in with a dissociation constant Kd in assay [2] of 4600 nM.
